Assay results taken from patent US20160137713A1 (HANALL BIOPHARMA, published 2016).

Key:
soluble human FcRn [1] = target: T1, soluble human FcRn (human, UniProt P55899 24-297; P61769 21-119); test: SPR, shFcRn immobilised, pH 6.0
T1 construct: extracellular domain;mature; Non-covalent heterodimer secreted by 293 cells, purified on IgG Sepharose; also called shFcRn; soluble FcRn
Protocol: (§1) Measurement of the binding ability of antibody by SPR was performed by immobilizing shFcRn as a ligand onto a Proteon GLC chip (Bio-Rad) and measuring affinity.
(§2) The analysis of ligand and analyte was performed using a Proteon GLC chip, and the interaction was analyzed at a pH of 6.0 and a pH of 7.4. Immobilization of the ligand was activated by injecting a 1:1 mixture of 1×EDAC (EDC) and 1× Surfo-NHS for 5 minutes. shFcRn was diluted in 10 mM sodium acetate (pH 4.5) at a concentration of 25 μg/ml and added to the ligand at a flow rate of 30 μl/min for 5 minutes. […] The analyte antibody was allowed to flow on the immobilized chip at a flow rate of 30 μl/min. […] The association time of the analyte antibody was 240 seconds, and the dissociation time was 600 seconds. Regeneration of the chip was performed by injecting 10 mM glycine (pH 2.5) at a flow rate of 100 μl/min for 18 seconds. Based on sensorgrams resulting from six concentrations of the analyte, kinetics analysis was performed using Proteon XPR36 software.

[2] = target: T2, mouse FcRn on 3T3-L1 cells (mouse, UniProt Q61559 22-365; P01887 21-119); test: FACS on mouse FcRn-expressing 3T3-L1 cells at pH 6.0 and pH 7.4, FITC anti-human IgG goat antibody; MFI relative to hIgG
T2 construct: whole, on cells; also called NIH3T3L1
T2 sequence (looked up): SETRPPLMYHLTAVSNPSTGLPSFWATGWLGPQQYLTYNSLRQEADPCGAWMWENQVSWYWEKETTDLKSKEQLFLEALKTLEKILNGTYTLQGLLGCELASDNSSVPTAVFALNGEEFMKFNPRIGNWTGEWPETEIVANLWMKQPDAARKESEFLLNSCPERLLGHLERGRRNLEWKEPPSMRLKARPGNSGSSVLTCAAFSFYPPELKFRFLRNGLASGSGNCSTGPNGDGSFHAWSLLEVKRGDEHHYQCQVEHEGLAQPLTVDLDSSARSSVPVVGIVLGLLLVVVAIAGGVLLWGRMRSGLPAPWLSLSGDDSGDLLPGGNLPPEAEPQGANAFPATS
T2 sequence (b2m, looked up): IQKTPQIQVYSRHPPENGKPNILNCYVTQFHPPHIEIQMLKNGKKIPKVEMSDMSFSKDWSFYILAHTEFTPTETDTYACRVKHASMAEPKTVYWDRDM
Protocol: 3T3-L1 cells stably expressing mouse FcRn were cultured in 10% FCS DMEM medium, and then detached from the culture plate by trypsin treatment. The cells were washed three times with cold binding buffer (PBS, pH 6.0 10 mM EDTA), and then diluted in binding buffer at a concentration of 10⁵ cells/ml. 100 μl of the cell dilution was dispensed into each 1.5-ml tube in such a manner that each tube contained 10⁴ cells, and 1 μl of HL161 antibody (1 mg/ml) was added to the dispensed cells. Next, the cells were incubated on ice. As control antibodies, 1 μl of each of rabbit antibody (Santacruz, sc-66893) and human IgG (Abcam, cat#. 409120), which bind to mouse FcRn, was used. The cells were recovered by centrifugation at 4° C. and 4000 rpm for 5 minutes, after which the cells were washed once with binding buffer and resuspended in 100 μl of binding buffer. As FITC-conjugated secondary antibody, 1 μl of anti-human IgG goat antibody (Invitrogen, Cat*. A11013) was added to the cells. In the case of the experiment using anti-mouse FcRn rabbit antibody, the anti-rabbit antibody was incubated with the cells on ice for 1 hour, and then the cells were recovered by centrifugation at 4° C. and 700 g for 5 minutes, washed once with binding buffer, resuspended in 400 ul of binding buffer and analyzed by FACS to examine the cross-reactivity of the HL161 antibodies with mouse FcRn (see FIG. 4). An experiment at a pH of 7.4 was performed using binding buffer at a pH of 7.4 in the same manner as the experiment using binding buffer at a pH of 6.0. The degree of the binding of each antibody to mouse FcRn was presented as relative MFI based on human IgG.

soluble human FcRn [3] = target: T1, soluble human FcRn; test: SPR, shFcRn immobilised, pH 7.4
Protocol: as §1, §2

[4] = target: T3, human FcRn on HEK293 cells (human, UniProt P55899 24-365; P61769 21-119); test: FACS competition on hFcRn HEK293 cells at pH 6.0; remaining binding of 100 nM Alexa488-labeled hIgG1 (m14) with 250 nM competitor antibody, percent of the tube without competitor
T3 construct: whole, on cells; also called hFcRn
Protocol: (§3) In stable HEK293 cells expressing human FcRn, the blocking of the antibody against FcRn was analyzed by FACS. The antibody was diluted in binding buffer (PBS pH 6.0, 10 mM EDTA) at concentrations of 2,000 nM, […] to make 50 μl of dilutions, which were dispensed into tubes. […] Stable HEK293 cells were diluted in binding buffer at a concentration of 2,500,000 cells/ml, and 40 μl of the cell dilution was added to each of the labeled antibody-containing tubes. Thus, a final volume of 100 μl contained 100,000 cells, 100 nM labeled antibody and 1000 nM, 500 nM or 250 nM competitor antibody. The cells were washed once with 150 μl of buffer (pH 6.0), and pellets were obtained therefrom and resuspended in 150 μl of buffer having pH difference. The suspension was transferred into a tube for FACS analysis. The cells were analyzed by FACS using BD FACSDiva™ v6.1.3 software (BD Bioscience). The results of the analysis were expressed as mean fluorescence intensity (MFI).
(§4) The MFI of the test group was processed after subtracting the MFI (background signal) measured in cells alone.

[5] = target: T3, human FcRn on HEK293 cells; test: FACS competition on hFcRn HEK293 cells at pH 6.0; remaining binding of 100 nM Alexa488-labeled hIgG1 (m14) with 1000 nM competitor antibody, percent of the tube without competitor
Protocol: as §3, §4

koff (soluble human FcRn [1]): 0.00034 s⁻¹
kon (soluble human FcRn [1]): 970000 M⁻¹ s⁻¹
binding result [2]: no binding
koff (soluble human FcRn [3]): 0.00045 s⁻¹
kon (soluble human FcRn [3]): 500000 M⁻¹ s⁻¹
Relative MFI(%) at 250nM [4]: 75.4%
Relative MFI(%) at 1000nM [5]: 51.8%
B1: HL161-11H (antibody, V domains shown)
VH: QMQLVESGGGLVQPGRSLRLSCAASGFTFSSYAMHWVRQAPGKGLEWVAVISYDGSNKYYADSVKGRFTISRDNSKNTLYLQMNSLRSEDTAVYYCSRGSGGRDAFDVWGQGTMITVSS
VL: DIQMTQSPSTLSASVGDRVTITCRASQSISSRLAWYQQKPGKAPKLLIYKASSLETGVPSRFSGSGSGTEFTLTISSLQPDDFATYYCQQTNSFPLTFGGGTKVEIK
notes: Whole human IgG from pNATAB vectors
